Measured values published in patent US20190077863A1 (AERPIO PHARMACEUTICALS, published 2019).

Tests used:
[1] = molecular target: T1, Cynomolgus VE-PTP (Cyno PTP-β) containing first eight FN3 repeats with C-terminal His10 tag (Cyno Beta ½ … (cynomolgus, UniProt P23467 25-817 (human entry))); test: ELISA, coated antigen
T1 construct: Produced in HEK293 cells; it was not cut off; also called Cyno VE-PTP
T1 chain: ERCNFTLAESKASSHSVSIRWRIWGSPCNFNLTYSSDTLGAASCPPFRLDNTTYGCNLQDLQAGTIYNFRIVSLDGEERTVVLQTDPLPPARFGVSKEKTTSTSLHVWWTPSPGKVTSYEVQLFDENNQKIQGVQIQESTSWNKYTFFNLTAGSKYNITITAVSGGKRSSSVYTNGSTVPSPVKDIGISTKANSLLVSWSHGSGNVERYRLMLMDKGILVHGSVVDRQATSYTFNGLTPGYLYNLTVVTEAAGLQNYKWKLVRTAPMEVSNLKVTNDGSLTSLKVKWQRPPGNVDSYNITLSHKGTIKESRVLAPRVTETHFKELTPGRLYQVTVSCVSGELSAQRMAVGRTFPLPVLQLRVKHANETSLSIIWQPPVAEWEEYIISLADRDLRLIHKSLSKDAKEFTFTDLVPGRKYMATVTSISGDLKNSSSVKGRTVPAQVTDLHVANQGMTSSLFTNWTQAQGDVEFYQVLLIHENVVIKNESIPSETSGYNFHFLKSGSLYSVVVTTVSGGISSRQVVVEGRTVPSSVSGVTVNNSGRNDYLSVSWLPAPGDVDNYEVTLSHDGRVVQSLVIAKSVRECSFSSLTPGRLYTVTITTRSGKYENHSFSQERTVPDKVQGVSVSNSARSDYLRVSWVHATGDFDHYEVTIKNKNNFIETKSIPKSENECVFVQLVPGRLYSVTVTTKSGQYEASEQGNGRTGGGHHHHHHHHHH
Protocol: (§1) HPTP-β, cyno PTP-β, and HPTP-η proteins were coated onto ELISA plates in coating buffer (pH 9.4). Each protein was prepared as a 1 μg/mL protein stock in 50 mM carbonate-bicarbonate. The coated proteins were aliquoted at a volume of 100 μL/well into sterile, clear, polystyrene, flat bottom 96-well plates. The plates were incubated overnight at 4° C. After overnight incubation, the plates were washed 3× with 200 μL/well of 1×PBS-T (PBS with 0.05% Tween 20). The immunizing protein was human VE-PTP (HPTP-β). The plates were then blocked with 200 μL/well of 5% blotting grade blocker non-fat dry milk in PBS-T and incubated for 1 hr at room temperature.
(§2) Primary antibody samples were prepared for the humanized variants and the negative control, anti-hCD20-hIgG4S228P, using 1 μg/well in 5% blotting grade blocker non-fat dry milk in PBS. Samples were tested in triplicates. The Fab antibody fragments were treated as the IgG antibodies. The plates were then washed 3× with PBS-T and 100 μL of primary antibody preparation was added in each well. The plates were then incubated for 1 hr at room temperature.
(§3) Then, […] Ultra TMB-ELISA was added in each well, and the plate was allowed to develop for 5 min at room temperature. After 5 min, 50 μL of 2 M sulfuric acid was added to each well to stop the reaction. The plates were then analyzed on a plate reader at an absorbance wavelength of 450 nm.

[2] = molecular target: T2, Human HPTP-η with C-terminal His10 tag (Human HPTP-η ECD) (human, UniProt Q12913 36-975); test: ELISA, coated antigen
T2 construct: Produced in HEK293 cells; it was not cut off; also called Human PTPη; human PTP-η
T2 sequence: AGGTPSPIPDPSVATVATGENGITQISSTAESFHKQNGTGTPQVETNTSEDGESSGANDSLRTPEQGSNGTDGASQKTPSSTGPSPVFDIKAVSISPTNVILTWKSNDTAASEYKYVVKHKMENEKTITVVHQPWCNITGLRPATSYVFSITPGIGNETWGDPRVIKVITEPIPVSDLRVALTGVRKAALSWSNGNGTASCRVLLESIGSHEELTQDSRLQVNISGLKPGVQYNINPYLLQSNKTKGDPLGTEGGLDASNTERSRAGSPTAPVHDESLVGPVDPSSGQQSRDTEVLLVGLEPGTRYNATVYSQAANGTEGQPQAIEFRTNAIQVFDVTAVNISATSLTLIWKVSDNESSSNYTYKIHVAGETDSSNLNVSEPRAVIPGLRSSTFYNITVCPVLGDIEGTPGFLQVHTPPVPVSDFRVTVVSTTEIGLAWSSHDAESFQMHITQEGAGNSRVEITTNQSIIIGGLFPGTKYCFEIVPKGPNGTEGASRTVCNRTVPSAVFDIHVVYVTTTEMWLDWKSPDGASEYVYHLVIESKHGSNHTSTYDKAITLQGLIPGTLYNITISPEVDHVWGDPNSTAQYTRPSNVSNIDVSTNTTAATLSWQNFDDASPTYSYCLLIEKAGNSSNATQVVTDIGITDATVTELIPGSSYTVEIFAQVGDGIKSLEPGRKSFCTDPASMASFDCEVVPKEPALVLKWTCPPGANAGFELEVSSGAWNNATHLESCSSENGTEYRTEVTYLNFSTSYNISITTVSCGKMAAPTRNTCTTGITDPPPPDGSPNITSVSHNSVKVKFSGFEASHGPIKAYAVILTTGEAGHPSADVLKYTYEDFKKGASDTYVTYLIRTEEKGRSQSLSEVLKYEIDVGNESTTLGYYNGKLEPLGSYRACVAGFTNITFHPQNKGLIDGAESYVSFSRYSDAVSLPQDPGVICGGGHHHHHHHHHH
Protocol: as §1, §2, §3

VEGFR2 = molecular target: T3, VEGFR2 (human, UniProt P35968 20-1356); test: immunoprecipitation western blot, HUVECs
T3 construct: Named only as 'VEGFR2; (R2/T2)' in the immunoprecipitation experiment with HUVECs

Tie2 = molecular target: T4, Tie2 (human, UniProt Q02763 23-1124); test: immunoprecipitation western blot, HUVECs
T4 construct: Named only as 'Tie2 (R2/T2)' in the immunoprecipitation experiment with HUVECs; also called T2

[3] = molecular target: T5, Human VE-PTP (HPTP-β) containing first eight FN3 repeats with C-terminal His6 tag (Human ½ VE-PTP ECD) (human, UniProt P23467 23-820); test: ELISA, antigen coated at 1 µg/mL, antibody 1 µg/well
T5 construct: Produced in HEK293 cells and purified by the His tag; it was not cut off; also called Human Beta ½ ECD
T5 sequence: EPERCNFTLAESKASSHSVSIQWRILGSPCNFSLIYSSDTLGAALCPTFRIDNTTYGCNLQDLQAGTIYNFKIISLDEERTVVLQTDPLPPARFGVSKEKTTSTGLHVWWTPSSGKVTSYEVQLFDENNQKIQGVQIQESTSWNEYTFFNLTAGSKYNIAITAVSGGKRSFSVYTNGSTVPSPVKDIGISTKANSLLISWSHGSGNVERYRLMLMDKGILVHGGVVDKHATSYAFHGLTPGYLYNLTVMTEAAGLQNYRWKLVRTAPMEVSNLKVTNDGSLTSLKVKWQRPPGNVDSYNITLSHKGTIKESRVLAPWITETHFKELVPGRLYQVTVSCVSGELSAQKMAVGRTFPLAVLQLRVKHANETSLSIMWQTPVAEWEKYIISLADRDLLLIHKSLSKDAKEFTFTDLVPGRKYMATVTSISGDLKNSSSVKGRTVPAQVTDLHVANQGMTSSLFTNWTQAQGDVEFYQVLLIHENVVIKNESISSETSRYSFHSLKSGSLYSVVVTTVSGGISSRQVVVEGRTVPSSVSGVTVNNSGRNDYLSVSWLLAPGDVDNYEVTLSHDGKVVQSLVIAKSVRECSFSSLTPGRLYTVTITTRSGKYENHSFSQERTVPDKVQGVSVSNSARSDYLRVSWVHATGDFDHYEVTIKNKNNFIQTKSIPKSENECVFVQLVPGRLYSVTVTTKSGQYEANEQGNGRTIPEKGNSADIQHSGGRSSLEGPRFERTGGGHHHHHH
Protocol: as §1, §2, §3

T4 sequence (Q02763 23-1124 limits assumed): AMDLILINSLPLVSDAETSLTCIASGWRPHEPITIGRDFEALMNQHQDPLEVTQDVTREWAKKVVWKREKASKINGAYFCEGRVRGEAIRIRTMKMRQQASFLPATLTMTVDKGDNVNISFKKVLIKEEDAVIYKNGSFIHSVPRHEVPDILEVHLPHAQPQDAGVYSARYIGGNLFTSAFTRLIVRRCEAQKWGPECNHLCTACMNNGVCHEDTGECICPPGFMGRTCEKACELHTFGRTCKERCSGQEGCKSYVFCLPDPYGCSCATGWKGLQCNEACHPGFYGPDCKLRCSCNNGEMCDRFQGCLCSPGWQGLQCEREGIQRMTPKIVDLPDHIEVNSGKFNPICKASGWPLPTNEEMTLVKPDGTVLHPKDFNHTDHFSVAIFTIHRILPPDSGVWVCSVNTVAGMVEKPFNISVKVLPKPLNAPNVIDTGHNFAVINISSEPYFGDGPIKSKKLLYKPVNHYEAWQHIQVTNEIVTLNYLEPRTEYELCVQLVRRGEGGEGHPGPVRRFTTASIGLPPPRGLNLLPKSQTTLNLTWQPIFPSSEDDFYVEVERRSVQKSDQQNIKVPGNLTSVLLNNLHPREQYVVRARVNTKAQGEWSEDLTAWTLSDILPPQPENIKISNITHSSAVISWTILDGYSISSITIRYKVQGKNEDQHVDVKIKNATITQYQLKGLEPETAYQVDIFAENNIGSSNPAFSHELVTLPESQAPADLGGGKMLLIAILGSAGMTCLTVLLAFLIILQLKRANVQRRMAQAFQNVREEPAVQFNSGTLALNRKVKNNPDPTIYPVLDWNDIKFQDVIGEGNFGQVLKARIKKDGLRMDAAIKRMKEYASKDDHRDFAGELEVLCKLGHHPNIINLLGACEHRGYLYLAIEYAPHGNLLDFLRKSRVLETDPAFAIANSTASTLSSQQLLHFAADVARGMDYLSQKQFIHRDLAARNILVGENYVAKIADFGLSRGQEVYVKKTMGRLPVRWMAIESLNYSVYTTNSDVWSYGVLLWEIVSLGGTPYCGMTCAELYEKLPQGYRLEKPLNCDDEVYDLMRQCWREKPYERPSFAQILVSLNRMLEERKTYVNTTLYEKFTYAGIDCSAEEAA
T3 sequence (P35968 20-1356 limits assumed): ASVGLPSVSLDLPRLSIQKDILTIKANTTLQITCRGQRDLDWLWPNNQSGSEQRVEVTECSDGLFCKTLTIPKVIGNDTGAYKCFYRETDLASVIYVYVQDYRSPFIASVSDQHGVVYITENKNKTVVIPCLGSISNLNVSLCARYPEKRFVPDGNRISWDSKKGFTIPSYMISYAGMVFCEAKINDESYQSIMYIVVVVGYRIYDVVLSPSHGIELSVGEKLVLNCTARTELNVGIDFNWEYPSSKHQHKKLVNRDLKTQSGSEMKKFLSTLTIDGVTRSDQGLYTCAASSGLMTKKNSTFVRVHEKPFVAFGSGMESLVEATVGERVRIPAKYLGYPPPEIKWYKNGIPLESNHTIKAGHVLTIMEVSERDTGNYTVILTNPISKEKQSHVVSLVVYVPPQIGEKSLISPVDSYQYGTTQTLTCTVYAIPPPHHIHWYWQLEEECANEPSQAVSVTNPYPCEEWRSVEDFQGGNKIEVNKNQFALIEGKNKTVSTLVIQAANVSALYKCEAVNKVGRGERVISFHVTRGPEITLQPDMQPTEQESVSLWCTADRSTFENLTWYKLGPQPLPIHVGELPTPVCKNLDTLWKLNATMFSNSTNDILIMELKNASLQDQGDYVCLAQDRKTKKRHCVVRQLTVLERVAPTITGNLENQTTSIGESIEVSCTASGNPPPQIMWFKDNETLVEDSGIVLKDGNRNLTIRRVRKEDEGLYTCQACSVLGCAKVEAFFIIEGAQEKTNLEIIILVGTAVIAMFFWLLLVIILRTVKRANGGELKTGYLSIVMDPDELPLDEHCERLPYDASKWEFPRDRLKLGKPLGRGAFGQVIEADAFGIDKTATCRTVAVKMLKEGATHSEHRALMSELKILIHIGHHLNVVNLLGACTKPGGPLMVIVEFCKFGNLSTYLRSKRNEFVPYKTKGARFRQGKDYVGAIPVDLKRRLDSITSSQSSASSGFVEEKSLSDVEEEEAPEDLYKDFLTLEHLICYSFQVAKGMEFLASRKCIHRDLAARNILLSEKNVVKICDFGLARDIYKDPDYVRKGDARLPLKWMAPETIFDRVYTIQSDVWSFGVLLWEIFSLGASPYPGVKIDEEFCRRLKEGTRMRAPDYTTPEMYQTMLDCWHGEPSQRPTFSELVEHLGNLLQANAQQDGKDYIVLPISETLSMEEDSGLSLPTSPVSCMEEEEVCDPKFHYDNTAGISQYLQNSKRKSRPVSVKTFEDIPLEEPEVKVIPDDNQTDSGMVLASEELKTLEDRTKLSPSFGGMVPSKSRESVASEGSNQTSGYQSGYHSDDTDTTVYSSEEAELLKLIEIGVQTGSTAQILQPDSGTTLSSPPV

B1: murine monoclonal antibody R15E6 (antibody, V domains shown)
VH: EVQLVETGGGLVQPKGSMKLSCAASGFTFNANAMNWIRQAPGKGLEWVARIRTKSNNYATYYAGSVKDRFTISRDDAQNMLYLQMNDLKTEDTAMYYCVRDYYGSSAWITYWGQGTLVTVSA
VL: DIVMTQSHKFMSTSVGDRVSITCKASQHVGTAVAWYQQKPDQSPKQLIYWASTRHTGVPDRFTGSGSGTDFTLTISNVQSEDLADYFCQQYSSYPFTFGSGTKLEIK
notes: Murine monoclonal antibody of hybridoma ATCC PTA-7580, 150 kDa; also called Parental; parental antibody
- binding result [1]: no binding (tested: <=0.2; 1 µg/well)
- binding result [2]: no binding (tested: <=0.2; 1 µg/well)
- binding result (VEGFR2): no binding
- binding result (Tie2): no binding
- ELISA value (absorbance at 450 nm) [3]: 2.43
